{
  "source": "paper PMC6562043",
  "about": "(Scientific Reports, 2019)",
  "target": "T1, synthesized human Aβ42 peptide (human, UniProt P05067 672-713)",
  "T1 construct": "also called Aβ peptide",
  "experiment": "ELISA",
  "conditions": "one partner purified",
  "data": [
    {"binder": "human PrP^C (transgene of TgHuPrP mice) (natural protein) not shown", "values": [
      {"measurement": "binding relative to mouse PrP^C, corrected for PrP expression", "value": "177 ± 9.5", "unit": "%"}
    ]}
  ]
}
